According to US20240342298A1 (IMMUNWORK, published 2024):

Tests used:
human CD38 [1] = target: T1, human CD38 (human, UniProt P28907 1-300); assay: flow cytometry on live U266-CD38+ cells, PE anti-human IgG-Fc detection
T1 construct: whole, on cells; also called full-length human CD38

human CD38 [2] = target: T1, human CD38; assay: flow cytometry on live H929 cells, PE anti-human IgG-Fc detection

EC50 (human CD38 [1]): 0.13 nM
EC50 (human CD38 [2]): 1.02 nM
B1: daratumumab (antibody, V domains shown)
VH: EVQLLESGGGLVQPGGSLRLSCAVSGFTFNSFAMSWVRQAPGKGLEWVSAISGSGGGTYYADSVKGRFTISRDNSKNTLYLQMNSLRAEDTAVYFCAKDKILWFGEPVFDYWGQGTLVTVSS
VL: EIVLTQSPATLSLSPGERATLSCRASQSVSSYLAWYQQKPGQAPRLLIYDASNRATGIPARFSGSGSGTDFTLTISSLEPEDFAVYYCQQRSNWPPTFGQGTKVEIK
